# Reference: FireProtDB (doi:10.1016/j.jmb.2009.04.068)
# Values joined by “and” are separate entries in the source; they are usually repeats but may differ in a detail not shown here. Equal entries are not always repeated.
# B1: Neurotensin receptor type 1, P20789 (parent)
# chain: MHLNSSVPQGTPGEPDAQPFSGPQSEMEATFLALSLSNGSGNTSESDTAGPNSDLDVNTDIYSKVLVTAIYLALFVVGTVGNSVTAFTLARKKSLQSLQSTVHYHLGSLALSDLLILLLAMPVELYNFIWVHHPWAFGDAGCRGYYFLRDACTYATALNVASLSVERYLAICHPFKAKTLMSRSRTKKFISAIWLASALLAIPMLFTMGLQNRSGDGTHPGGLVCTPIVDTATVKVVIQVNTFMSFLFPMLVISILNTVIANKLTVMVHQAAEQGRVCTVGTHNGLEHSTFNMTIEPGRVQALRHGVLVLRAVVIAFVVCWLPYHVRRLMFCYISDEQWTTFLFDFYHYFYMLTNALFYVSSAINPILYNLVSANFRQVFLSTLACLCPGWRHRRKKRPTFSRKPNSMSSNHAFSTSATRETLY
# Variants of: B1
# Settings: Rattus norvegicus; pH 7.4; Heat treatment; Activity; Tris-HCl 50 mM; structure 4BUO; whole UniProt chain shown
Variant,Tm,"change of melting temperature, mutant - wild type (higher = more stable)"
F358A A86L H103A F342A,50 °C,
F358A A86L H103A I260A,49 °C,
F358A H103A I260A F342A,50 °C,
F358A,,7 °C
F358A A86L I260A,49 °C,
F358A A86L H103A,48 °C,
F358A A86L H103A I260A F342A,50 °C,

# Same assay, conditions: Rattus norvegicus; pH 7.4; Thermal; Activity; Tris-HCl 50 mM; structure 4BUO; whole UniProt chain shown
row,Variant,"change of melting temperature, mutant - wild type (higher = more stable)"
1,F358A,3 °C and 8 °C
